Data on 16 sequences can be found in the DeepSol protein solubility set.

The data set is described as follows: soluble on expression in E. coli; label from the status in PepcDB or PDB records.
For “MSLGRFKTLLNQEDYLILHGALGTELEFLGYDVSGKLWSAKYLLENPSIIQTIHETYLRSGSDIVTTSSYQASYQGLCDYGLSQEEAEKMIALTVSLAKNAREKVWQELSEKEKQVRPYPLISGDVGPYAAYLADGSEYTGNYGQLDKEVLKDFHRSRIKILVDEGSDLLALETIPNFLEAQALVELLQEEFPSVEAYMSFTAQNGTTISDGTAIEEVAELIDKASQILALGINCSSPSVYSSLLKKIADITDKPLVTYPNSGEVYDGQHQMWTQSADISHTLLENTKIWHTFGAKVVGGCCRTRPNDIESLSRGLREEGHHHHHH”, the “soluble on expression in E. coli” value is “soluble”.

Regarding “MASSVLEMIKEEVTCPICLELLKEPVSADCNHSFCRACITLNYESNRNTDGKGNCPVCRVPYPFGNLKPNLHVANIVERLKGFKSIPEEEQKVNICAQHGEKLRLFCRKDMMVICWLCERSQEHRGHQTALIEEVDQEYKEKLQGALRKLMKKAKICDEWQDDLQLQRVDWENQIQINVENVQRQFKGLRDLLDSKENEELQKLKKEKKEVMEKLEESENELEDQTELVRDLISDVEHHLQLSTLEMLQGANCVLRRSQSLSLQQPQSVPQKRKRTFQAPDLKGMLQVYQGLMDIQQYWVHMTLHARNNAVIAINKEKRQIQYRSYNTVPVSEIYHLGVLGYPALSSGKHYWEVDISRSDAWLLGLNDGKCAQPQLHSKEEMGIKKNLHSQIKQNVLFQPKCGYWVIGMKNPSVYNAFDECSITHNSSILVISLPDCPSRVGVFLDRKAGTLSFYDVSNCGALIYRFYDPAFPVEVYPYFNPMKCSEPMTICGPPS”, the “soluble on expression in E. coli” value was “soluble”.

Regarding “MALVDQESCLRGFYSVFLRHCDVEPAIATFDGVRSPPDVVRLYPKPRYDYTLASAFLGTAVSGYITSRRDNAPNKNTGHRYVYTTSILIAVVTSVDTQHRSPSRCFMAMGESYFLQDEKCVFWLEHHHHHH”, the “soluble on expression in E. coli” value was “not soluble”.

As to “PSMPASPVLTKAGITWLSLQWSKPSGTPSDEGISYILEMEEETSGYGFKPKYDGEDLAYTVKNLRRSTKYKFKVIAYNSEGKSNPSEVVEFTTCPD”, the “soluble on expression in E. coli” value was “soluble”.

Regarding “MDRFNEYRIMWVLVLFDLPTETKKEKKAYADFRKNLQKDGFTMFQFSIYVRHCGSSENAAVHIKRVKSFLPEFGHVGIMCITDKQFGDIELFYGKKVQDVNTPGQQLELFLEHHHHHH”, the “soluble on expression in E. coli” value is “not soluble”.

Turning to “MGSDKIHHHHHHEQEDKVSGEKTLAVVSASSDDRPSTRGIINDNTYALGVFRTTANTYAPLYNVKHIYSGGEWGADDVIKVDYRNASFFAYYPYHTATGNYAGLAGGTTLTLQAQLFNAGEDICYGAGEASGGGPVSVYNPFVEFLNMKHAYARLRLTLTRGEKFDKTKKCNIQNITFKSNNANFYLTRSLDIASTAGATGGSAVAAGYVHNPNVNIATGKSVTYEYMFPPQPLDGSKLTILVTVDGVTRSCDISTLGSSLDSGKYYGVSLTFTDVGIILSSAVVTVNNFGGQGNTQVDTEL”, the “soluble on expression in E. coli” value is reported as “not soluble”.

“MAHHHHHHMAASSPLGMANYVTGDPLGVAGQEAGKGAGALLAAVQQCSAELSHEFGDGVALMTGEPAAATTSSHASPLSPEQRVALSAGAVTCLSVASLPGTTDTAVAVVGTTVGTVALLLIEGSRAVYKVAECSLMEWSSGAITAQDAIVDVAFSMDPAGRPEFVGAASAGCVVVVDVQLLYRPSGNSSRSTDEEVGDTATDAPAAVVHRAEWHQATELWSNSALRAKAVEALERSSAQLVRHCCSDVFACSFVEADVVRILAPQRLQAAVAIDVALVVVLSSGALHYVERVVEGGSVRLLAEHHWQRLAKGAAFTSHASAATQGADSAAENDFSADGTSVHLVTDSRAVPHVIYRYRLSPYHVQACQDGGQTASGGGGNYSMAALALPCATESVTHVCDAHLHFSEKDAACHVVLAGTQRVPVGKVGYMSVASRVGSLGHAQQQQHAGVAGCRTLAWWAVVQNAVLPRQTFDRSALERQALQHQHQQQQQQLHDGHAFPPFRTNAGSPPFTVHVQSNTMALPCGLGTCPASALTSPATSSPATAGAGVASGVSAVGPGQGSGFAAAFMLTDILVLASGHELYVGDLRDVPRSAKTLPVPRPLRSFGSVVEGITAGPYMDARAVLVATGSRVAPVSLV”: the “soluble on expression in E. coli” value is recorded as “not soluble”.

As for “MLQVLGRLINILFPLLRFILGIWWEKLRGKDPTVSRAKAIQLRELLTNLGPTYIKVGQALSTRPDLVPPVFLDELTTLQDQLPSFPNEVAYRFIEEELGAPAEEIYAELEHHHHHH”, the “soluble on expression in E. coli” value is “not soluble”.

On to “MGSDKIHHHHHHFNQYRENVELTAQRLEATYRASNILNLGVACLKKHFGFLGMEINWSTGSVTWFDDFRKRVLLQSDGDAWENVFSLLDTEKYYNLSSDIDFSTEASKLGFSNFEAVAIPFKNNPFFALLVVRAQVGKAVVYKYAVLSSDFLNKYAYFTEKETRPDGDKIYFITQDIIDGPFRSNDVIHVKGEPLFKGSVEFKDIDLEAGEGPRYENPPPKYLTEEDIKKYNIEKIKDYYSQQIERIVKPASEVVLSSEPVGIELPSINEFVESWEEKENDKTIYYKKQREIVYTLEFNTPKGSSGNDYLIKVSYKEVYRIYKSEDQEKWNFVREEVLGEGELFHIKSKPNSDQYHLVLQGNEAREFLGLDRNEYDIYFNGVIKTDNDVYLKNMSEGNIKPMFVDGRYTIVANNIYIEDHIIYNDYREVLEEIADKEKISGNSDQKIAQAVIRKLGVDGNIEEDYSELLKNHESDDFLNLVAYKNVVITDKKPNMKIFASIYAFTGSFYVKGYNEKDFLKNNERELTERELTIFGSLAQYVRGAVGTFYWSRDGKPTIKTGYRKNYIYDWRILKGFSVFGTPTVPKESNILNVREVY”, for which the “soluble on expression in E. coli” value is given as “not soluble”.

Turning to “MGSDKIHHHHHHMSGIEAFSPKGMLHECWSAQANDYAIVCGWALQGKTFLVGDVAGGLYAFEGISGKLIWQIKDIHKGGLLAMSIHPNGKTFATAGQDGHVNIWESQKGTSTKTLELGKGWVEHIKWSPDGKFLAVVFTKYVYVFDDKGQEHWRSEEHPSTVSAIAWSNSNELATACYGQVTFFDVVNDKINQKLEWRGSLVSMVLSPDGDIVACGSQDNSVHFWRRSTDQDSEMTGYPGKPSHLAFDQTGTVLATGGSDRVTVWSFQGDGPEGTVPGELMLHTEPISCLAFSHSGMLLASGSRDGSVFSWFLQKDGQGDPVGGAFAGDLVSQIAWHPDDTALAAINANGGITVWEFKVRTKTSPQGFG”, the “soluble on expression in E. coli” value was “not soluble”.

On to “MRHVSNGDPVRVVIVTDGAYGAPAESGDYAQTRRRESTRAAAILGYGAPEFWNLPDRGLEYGERLIQRVLTAMEDHAAELVYAPSWWEVHPDHRVLALAATEAVRRCTRPLRLAMYEVGVPLQPNALLDITDLAERKASAVACFSSQLAQQDYDEQIASLNRFRTYTLPRTVRAAEGYLVLAAEELRNRIPRMMTQKDRLAVRGETGDTAATPLVSVIIPSMDGPRLKEALDSVALQTYPRIEAVVIDAKGEGHTPLPRWCGRFPLRFIPSDISLSRGRAADVGLEHAEGDYLVFLGEDDVFQPGDVASLVAEAARKQGTGLCSHADRRMTVFSGGVVDGSPRTGKPGKPAFLPLHAVLFDRSLAELRCRFDGDANVPEDGDFWDQAMQHVASIHPGACRHGHGLPGGEAGRHTIVRLPPWTSPAPLPPGASLARTPHPTERDSLRRRIQRAGRRIYETPPRGLTDALVRTAYRIWARLSSDSMITNDGKGTLEHHHHHH”, for which the “soluble on expression in E. coli” value was “not soluble”.

“SPAPNQPAAKKTLDSTPAQDKPPQPNSQGKKLASVALLLVLALGAGFAYVHQQQKSEFNNQLQAVRAELKQTRDALNAQLEQTVSKATSQATEITHRAETVLEQQQKSIESLQLAVADIKGRRPNDWLLAEADYLVKLAGRKLFLEHDVETATQLMESADQRIAALNDPSLTALRKAMANDITTLKNIPLIDRDGLVLRLISLQQQIDSLPLANAILPADQPQTSQAVSENIDDWQTNLKNSLKAFADNFITFRSRDGNVIPLLSPTQHFYLRENLQAKLETAIKGVYTEQQTLYRIALDTAAQWSTSFFNPDDKAVQSFNAALAQLAEQQVQVEYPVKLQAQQQLADVINERLRRSVSPLTTGA”: the “soluble on expression in E. coli” value is “not soluble”.

As for “GKRSERQQADMEMMKDRFAKLLLGEDMSGGGKGVSSALALSNAITNLAASIFGEQTKLQPMPQDRQARWKKEIDWLLSVTDHIVEFVPSQQTSKDGVCTEIMVTRQRGDLLMNIPALRKLDAMLIDTLDNFRGHNEFWYVSRDSEEGQQARNDRTNDKWWLPPVKVPPGGLSEPSRRMLYFQKDSVTQVQKAAMAINAQVLSEMEIPESYIDSLPKNGRASLGDSIYKSITEEWFDPEQFLAMLDMSTEHKVLDLKNRIEASVVIWKRKLHTKDTKSSWGSAVSLEKRELFEERAETILVLLKQKFPGLPQSSLDISKIQFNKDVGQAVLESYSRILESLAYTVMSRIEDVLYTDTLALKQTLLA”, the “soluble on expression in E. coli” value is listed as “soluble”.

Turning to “MAHHHHHHMQQSLKNQEHIWAVLQKMRMEMNECFAEHERMLRQAHGQLKERLDKIESAFVARNGGVGQLVGNSSSSLGHLDHATPVYTRFVSDKKGSPAGMRVTMLSTPPNERMQLMPPDSRGARSDVLPQPVDPTDWVALAAPSRQEATPAVSPHNRWTNDDSIHAEKTPSVDATCFEALNNLMNDDDFQHSTLESVIPSYTQDDDSKQLQSQPNLGTYTKKNDIIHMGAPGSSQTQHFTKSLKVTYMDGRPQAVPIPDGPPDEPDKLGIDVNAQCKVLVEFKRKRVLQFESKEYVPPGSYVMVGGDRGEDLGLVTYTWCETTKSLKGELGEFGNGSNKTVVLCVGLTGSTLTRSIGLGAGTVLRLADDSDVKQLHTVQVELERRAIDVCSQRVLERGLPMTIVDAEYQFDKKKLTFFYEAQQRMDFRELVRDLYKSFRARIWMELVEN”, the “soluble on expression in E. coli” value is “not soluble”.

For the sequence “MGSDKIHHHHHHMRINPGEITKVLEEKIKSFEEKIDLEDTGKVIQVGDGIARAYGLNKVMVSELVEFVETGVKGVAFNLEEDNVGIIILGEYKDIKEGHTVRRLKRIIEVPVGEELLGRVVNPLGEPLDGKGPINAKNFRPIEIKAPGVIYRKPVDTPLQTGIKAIDSMIPIGRGQRELIIGDRQTGKTAIAIDTIINQKGQGVYCIYVAIGQKKSAIARIIDKLRQYGAMEYTTVVVASASDPASLQYIAPYAGCAMGEYFAYSGRDALVVYDDLSKHAVAYRQLSLLMRRPPGREAYPGDIFYLHSRLLERAVRLNDKLGGGSLTALPIVETQANDISAYIPTNVISITDGQIYLEPGLFYAGQRPAINVGLSVSRVGGSAQIKAMKQVAGMLRIDLAQYRELETFAQFATELDPATRAQIIRGQRLMELLKQEQYSPMPVEEQVVVLFAGVRGYLDDLPVEEVRRFEKEFLRFMHEKHQDILDDIKTKKELTSETEEKLKKAIEEFKTTFRV”, the “soluble on expression in E. coli” value is listed as “not soluble”.

For “MPEFRVWAPKPALVRLDVNGAVHAMTRSADGWWHTTVAAPADARYGYLLDDDPTVLPDPRSARQPDGVHARSQRWEPPGQFGAARTDTGWPGRSVEGAVIYELHIGTFTTAGTFDAAIEKLDYLVDLGIDFVELMPVNSFAGTRGWGYDGVLWYSVHEPYGGPDGLVRFIDACHARRLGVLIDAVFNHLGPSGNYLPRFGPYLSSASNPWGDGINIAGADSDEVRHYIIDCALRWMRDFHADGLRLDAVHALVDTTAVHVLEELANATRWLSGQLGRPLSLIAETDRNDPRLITRPSHGGYGITAQWNDDIHHAIHTAVSGERQGYYADFGSLATLAYTLRNGYFHAGTYSSFRRRRHGRALDTSAIPATRLLAYTCTHDQVGNRALGDRPSQYLTGGQLAIKAALTLGSPYTAMLFMGEEWGASSPFQFFCSHPEPELAHSTVAGRKEEFAEHGWAADDIPDPQDPQTFQRCKLNWAEAGSGEHARLHRFYRDLIALRHNEADLADPWLDHLMVDYDEQQRWVVMRRGQLMIACNLGAEPTCVPVSGELVLAWESPIIGDNSTELAAYSLAILRAAEPA”, the “soluble on expression in E. coli” value is listed as “not soluble”.
